# Test results as given in patent US11278600B2, “Human alpha-galactosidase variants” (Codexis, Inc., priority 2014, dated 2022).
# Substitutions are numbered along the chain they refer to.
# B1: 472 (protein)
# chain: LDNGLARTPTMGWLHWERFMCNLDCQEEPDSCISEKLFMEMAERMVSEGWKDAGYEYLCIDDCWMAPQRDSEGRLQADPQRFPHGIRQLANYVHSKGLKLGIYADVGNKTCAGFPGSFGYYDIDAQTFADWGVDLLKFDGCYCDSLENLADGYKHMSLALNRTGRSIVYSCEWPLYMWPFQKPNYTEIRQYCNHWRNFADIDDSWKSIKSILDWTSRNQERIVDVAGPGGWNDPDMLVIGNFGLSWDQQVTQMALWAIMAAPLFMSNDLRHISPQAKALLQDKDVIAINQDPLGKQGYQLRKGDNFEVWERPLSGDAWAVAIINRQEIGGPRSYTIPVASLGKGVACNPACFITQLLPVKRQLGFYNWTSRLKSHINPTGTVLLQLENTMQKSLKDLL
# modifications: Synthetic Polypeptide sequence of Variant No. 472 of mature Human GLA
# B2: 473 (protein)
# chain: B1 chain with K392L
# modifications: Synthetic Polypeptide sequence of Variant No. 473 of mature Human GLA
# B3: 474 (protein)
# chain: B1 chain with L386F, K392M
# modifications: Synthetic Polypeptide sequence of Variant No. 474 of mature Human GLA
# B4: 475 (protein)
# chain: LDNGLARTPTMGWLHWERFMCNLDCQEEPDSCISEKLFMEMAERMVSEGWKDAGYEYLCIDDCWMAPQRDSEGRLQADPQRFPHGIRQLANYVHSKGLKLGIYADVGNKTCAGFPGSFGYYDIDAQTFADWGVDLLKFDGCYCDSLENLADGYKHMSLALNRTGRSIVYSCEWPLYMWPFQKPNYTEIRQYCNHWRNFADIDDSWKSIKSILDWTSFNQERIVDVAGPGGWNDPDMLVIGNFGLSWNQQVTQMALWAIMAAPLFMSNDLRHISPQAKALLQDKDVIAINQDPLGKQGYQLRQGDNFEVWERPLSGLAWAVAMINRQEIGGPRSYTIAVASLGKGVACNPACFITQLLPVKRKLGFYEWTSRLRSHINPTGTVLLQLENDMQMSLKDLL
# modifications: Synthetic Polypeptide sequence of Variant No. 475 of mature Human GLA
# B5: 476 (protein)
# chain: B4 chain with D389T, M390E
# modifications: Synthetic Polypeptide sequence of Variant No. 476 of mature Human GLA
# B6: 477 (protein)
# chain: B4 chain with L384W, D389T
# modifications: Synthetic Polypeptide sequence of Variant No. 477 of mature Human GLA
# B7: 369 (protein)
# chain: B1 chain with R44S, K392M
# modifications: Synthetic Polypeptide sequence of Variant No. 369 of mature Human GLA
# B8: 478 (protein)
# chain: B4 chain with D389T, M392S
# modifications: Synthetic Polypeptide sequence of Variant No. 478 of mature Human GLA
# B9: 479 (protein)
# chain: B4 chain with D389T, M392F
# modifications: Synthetic Polypeptide sequence of Variant No. 479 of mature Human GLA
# B10: 480 (protein)
# chain: B4 chain with D389T, M390R
# modifications: Synthetic Polypeptide sequence of Variant No. 480 of mature Human GLA
# B11: 481 (protein)
# chain: B4 chain with D389T, M390G
# modifications: Synthetic Polypeptide sequence of Variant No. 481 of mature Human GLA
# B12: 482 (protein)
# chain: B4 chain with Q385G, D389T
# modifications: Synthetic Polypeptide sequence of Variant No. 482 of mature Human GLA
# B13: 483 (protein)
# chain: B4 chain with D389T, M392C
# modifications: Synthetic Polypeptide sequence of Variant No. 483 of mature Human GLA
# Assay: HTP-analysis of supernatants pretreated with base (MUGal hydrolysis)
# Type: biochemical
# Details: activity of the variant/activity of Rd4BB (SEQ ID NO: 15); challenge at pH 9.65
# In short: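 GLA variants were secreted by transformed INVSc1 yeast grown 66-84 h at 30° C. Supernatants were exposed to neutral-to-basic buffers (pH 7.0-9.7) at 37° C for 1-18 h, then assayed with MUGal in acidic citrate/McIlvaine buffer, with fluorescence read after quenching.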
row,Molecule,Relative Activity of GLA Variants After Challenge at pH 9.65
1,B1,+ (0.5 to 1.5 relative activity over Rd4BB (SEQ ID NO: 15))
2,B2,+ (0.5 to 1.5 relative activity over Rd4BB (SEQ ID NO: 15))
3,B3,+ (0.5 to 1.5 relative activity over Rd4BB (SEQ ID NO: 15))
4,B4,+ (0.5 to 1.5 relative activity over Rd4BB (SEQ ID NO: 15))
5,B5,+ (0.5 to 1.5 relative activity over Rd4BB (SEQ ID NO: 15))
6,B6,+ (0.5 to 1.5 relative activity over Rd4BB (SEQ ID NO: 15))
7,B7,− (<0.5 relative activity over Rd4BB (SEQ ID NO: 15))
8,B8,+ (0.5 to 1.5 relative activity over Rd4BB (SEQ ID NO: 15))
9,B9,+ (0.5 to 1.5 relative activity over Rd4BB (SEQ ID NO: 15))
10,B10,+ (0.5 to 1.5 relative activity over Rd4BB (SEQ ID NO: 15))
11,B11,+ (0.5 to 1.5 relative activity over Rd4BB (SEQ ID NO: 15))
12,B12,+ (0.5 to 1.5 relative activity over Rd4BB (SEQ ID NO: 15))
13,B13,+ (0.5 to 1.5 relative activity over Rd4BB (SEQ ID NO: 15))

# Assay: HTP-analysis of yeast culture supernatants, no challenge (MUGal hydrolysis)
# Type: biochemical
# Details: activity of the variant/activity of Rd4BB (SEQ ID NO: 15)
# In short: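 Activity read as 4-methylumbelliferyl α-D-galactopyranoside hydrolysis: fluorescence (355/448 nm) after sodium carbonate stop, following 30-180 min at 37° C with 2 mM MUGal stock at pH 4.6–4.8. Enzyme source is unchallenged culture supernatant of INVSc1 yeast expressing GLA variants, grown 66-84 h at 30° C.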
row,Molecule,Relative Activity of GLA Variants After No Challenge (NC)
1,B1,+ (0.5 to 1.5 relative activity over Rd4BB (SEQ ID NO: 15))
2,B2,+ (0.5 to 1.5 relative activity over Rd4BB (SEQ ID NO: 15))
3,B3,+ (0.5 to 1.5 relative activity over Rd4BB (SEQ ID NO: 15))
4,B4,+ (0.5 to 1.5 relative activity over Rd4BB (SEQ ID NO: 15))
5,B5,+ (0.5 to 1.5 relative activity over Rd4BB (SEQ ID NO: 15))
6,B6,+ (0.5 to 1.5 relative activity over Rd4BB (SEQ ID NO: 15))
7,B7,+ (0.5 to 1.5 relative activity over Rd4BB (SEQ ID NO: 15))
8,B8,+ (0.5 to 1.5 relative activity over Rd4BB (SEQ ID NO: 15))
9,B9,+ (0.5 to 1.5 relative activity over Rd4BB (SEQ ID NO: 15))
10,B10,+ (0.5 to 1.5 relative activity over Rd4BB (SEQ ID NO: 15))
11,B11,+ (0.5 to 1.5 relative activity over Rd4BB (SEQ ID NO: 15))
12,B12,+ (0.5 to 1.5 relative activity over Rd4BB (SEQ ID NO: 15))
13,B13,+ (0.5 to 1.5 relative activity over Rd4BB (SEQ ID NO: 15))

# Assay: HTP-analysis of supernatants pretreated with acid (MUGal hydrolysis)
# Type: biochemical
# Details: activity of the variant/activity of Rd4BB (SEQ ID NO: 15); challenge at pH 3.7
# In short: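 MUGal hydrolysis was tracked by fluorescence (Ex 355 nm, Em 448 nm) after a 30-180 min reaction at 37° C. in pH 4.8 McIlvaine/citrate buffer, stopped with 1 M sodium carbonate. Beforehand, yeast (INVSc1) culture supernatants carrying GLA variants were held 1-3 h at 37° C. in acidic McIlvaine buffer, pH 3.3-4.3.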
row,Molecule,Relative Activity of GLA Variants After Challenge at pH 3.7
1,B1,+ (0.5 to 1.5 relative activity over Rd4BB (SEQ ID NO: 15))
2,B2,+ (0.5 to 1.5 relative activity over Rd4BB (SEQ ID NO: 15))
3,B3,++ (>1.5 to 2.5 relative activity over Rd4BB (SEQ ID NO: 15))
4,B4,+ (0.5 to 1.5 relative activity over Rd4BB (SEQ ID NO: 15))
5,B5,+ (0.5 to 1.5 relative activity over Rd4BB (SEQ ID NO: 15))
6,B6,− (<0.5 relative activity over Rd4BB (SEQ ID NO: 15))
7,B7,+ (0.5 to 1.5 relative activity over Rd4BB (SEQ ID NO: 15))
8,B8,++ (>1.5 to 2.5 relative activity over Rd4BB (SEQ ID NO: 15))
9,B9,+ (0.5 to 1.5 relative activity over Rd4BB (SEQ ID NO: 15))
10,B10,+ (0.5 to 1.5 relative activity over Rd4BB (SEQ ID NO: 15))
11,B11,+ (0.5 to 1.5 relative activity over Rd4BB (SEQ ID NO: 15))
12,B12,+ (0.5 to 1.5 relative activity over Rd4BB (SEQ ID NO: 15))
13,B13,+ (0.5 to 1.5 relative activity over Rd4BB (SEQ ID NO: 15))
